Laboratory results: the supplement of paper PMC10126150
± gives the standard deviation of the averaged measurements.

System: ATP
Test: switch fluorescence ratio, 500 uM ATP over buffer (Cy3 cluster intensity, sum of 5 cycles each) (fold (ratio)); higher = stronger signal-on switching upon ATP binding; sequences stand for … in TCGTCGGCAGCGTCAGATGTGTATAAGAGACAGTTTTTTTTTTTTTTTTTTTTTTTTT…TC
Conditions: aptamer strand: ATP DNA aptamer (quencher-CACCTGGGGGAGTATTGCGGAGGAAGG + anchor), 100 nM annealed; ATP concentration: 500 uM
Procedure, shortened: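 Clusters with intensities outside 100-1000 RFU were excluded. The remaining Cy3-labelled switching-strand clusters on a modified Illumina MiSeq flow-cell had been annealed to 100 nM quencher-labelled ATP aptamer and imaged in selection buffer, then after 15 min with 500 uM ATP at 22 °C, for five cycles separated by NaOH stripping and re-annealing. The fluorescence ratio, averaged per switch-domain sequence, is each cluster's summed target-cycle Cy3 intensity over its summed buffer-cycle Cy3 intensity.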
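Further: ATP exposure 15 min at 22 °C before imaging.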

GCGAGAGGGA
switch fluorescence ratio: 1.01 ± 0.013

AATCGGATGG
switch fluorescence ratio: 1.02 ± 0.037

TTGGTGGCTT
switch fluorescence ratio: 0.968 ± 0.03

TTTACCAGGG
switch fluorescence ratio: 1.13 ± 0.085

TAAGATCTGG
switch fluorescence ratio: 1.006 ± 0.0021

TACCTCTTAA
switch fluorescence ratio: 1.05 ± 0.026

GAATGAAAAT
switch fluorescence ratio: 0.997 ± 0.022

GACGCGGATG
switch fluorescence ratio: 1.04 ± 0.02

TATGGGTACT
switch fluorescence ratio: 1 ± 0.027

GGCGGGGAGG
switch fluorescence ratio: 1.01 ± 0.033

GAAACTTAGG
switch fluorescence ratio: 1.01 ± 0.019

TACGGGATGT
switch fluorescence ratio: 1.046 ± 0.0092

ATAATTATGT
switch fluorescence ratio: 1 ± 0.018

TCTGTATACA
switch fluorescence ratio: 0.989 ± 0.037

TTAAAGCCTT
switch fluorescence ratio: 1.03 ± 0.053

TATTAGAGCG
switch fluorescence ratio: 1.02 ± 0.025

CAGGTCCTTT
switch fluorescence ratio: 1.01 ± 0.025

ATATGCGTCG
switch fluorescence ratio: 0.95 ± 0.027

GCCGGGAAAC
switch fluorescence ratio: 1.043 ± 0.0036

GGGGTACGGG
switch fluorescence ratio: 1.05 ± 0.024

AATGGTCGTG
switch fluorescence ratio: 0.998 ± 0.02

CTAGGAGGGA
switch fluorescence ratio: 0.98 ± 0.013

AAGGTAGTGG
switch fluorescence ratio: 0.962 ± 0.017

TTAGTCAATT
switch fluorescence ratio: 0.97 ± 0.0044

TCAGGAGGGG
switch fluorescence ratio: 0.997 ± 0.02

CGATGGTGAA
switch fluorescence ratio: 1.02 ± 0.035

AGTATAAAAA
switch fluorescence ratio: 1.03 ± 0.062

GGCAGTCCGG
switch fluorescence ratio: 0.9876 ± 0.0024

AGAGTTTCGA
switch fluorescence ratio: 1.01 ± 0.034

CAATGGCCTG
switch fluorescence ratio: 0.984 ± 0.013

CTCGGTTCTT
switch fluorescence ratio: 0.975 ± 0.019

ATATCCGTCA
switch fluorescence ratio: 1.05 ± 0.051

AGTAGAAATG
switch fluorescence ratio: 0.991 ± 0.012

GACTAGTGAA
switch fluorescence ratio: 0.9906 ± 0.0079

AGGATGCTCA
switch fluorescence ratio: 1.01 ± 0.011

TTACGACGCA
switch fluorescence ratio: 3.67 ± 0.76

TTATGTATAT
switch fluorescence ratio: 1.007 ± 0.0069

GAGGCGCAGT
switch fluorescence ratio: 0.9988 ± 0.0024

ATCCCGGGAT
switch fluorescence ratio: 1 ± 0.022

TGTTCCGCCC
switch fluorescence ratio: 2.012 ± 0.0024

AGGCCCTTTA
switch fluorescence ratio: 1.12 ± 0.17

TATTGGAGTT
switch fluorescence ratio: 1.04 ± 0.015

CGGAGGGTGG
switch fluorescence ratio: 0.961 ± 0.041

TTTTGGGCTT
switch fluorescence ratio: 1.12 ± 0.22

GAGAGGCAAA
switch fluorescence ratio: 1.01 ± 0.018

AATGGGCGGA
switch fluorescence ratio: 0.995 ± 0.017

CTAGGGAGAG
switch fluorescence ratio: 0.9912 ± 0.0069

TCCCGATTTC
switch fluorescence ratio: 1.07 ± 0.024

GACAGGGATC
switch fluorescence ratio: 2.1 ± 1.6

CGTAGCGGGG
switch fluorescence ratio: 1.11 ± 0.022

TAAAATTCGA
switch fluorescence ratio: 0.9784 ± 0.0059

AATATAACCT
switch fluorescence ratio: 1.94 ± 0.092

TGGGTTAGGT
switch fluorescence ratio: 0.977 ± 0.022

GGGGAGGCAC
switch fluorescence ratio: 0.9854 ± 0.002

CCGTGGGTTT
switch fluorescence ratio: 1.059 ± 0.0031

TTAATGTGCG
switch fluorescence ratio: 1.01 ± 0.023

TGAGGTTGTC
switch fluorescence ratio: 0.981 ± 0.09

GGCGCTGTGA
switch fluorescence ratio: 1.01 ± 0.022

GCACTAGACT
switch fluorescence ratio: 1.07 ± 0.029

AGGAAGCAGT
switch fluorescence ratio: 1.018 ± 0.0085

GTGTAAGTGT
switch fluorescence ratio: 0.9821 ± 0.0046

AATTTAGTAT
switch fluorescence ratio: 0.996 ± 0.022

GGTGATTTAA
switch fluorescence ratio: 1.01 ± 0.012

ATTGGAGGAT
switch fluorescence ratio: 0.96195 ± 0.0005

TTTATACGTT
switch fluorescence ratio: 1.01 ± 0.044

CATAGGAGGG
switch fluorescence ratio: 0.977 ± 0.056

TTTTCGTCCT
switch fluorescence ratio: 1.18 ± 0.18

GCTATAGCGT
switch fluorescence ratio: 0.9958 ± 0.0063

AGGGAGGAGG
switch fluorescence ratio: 0.971 ± 0.024

CTTTACTTTT
switch fluorescence ratio: 1.014 ± 0.0061

TTTTTAGGAA
switch fluorescence ratio: 1.04 ± 0.055

CGGGGGTCAA
switch fluorescence ratio: 0.99 ± 0.011

CAATGGGGTA
switch fluorescence ratio: 0.992 ± 0.012

CGTAGGATGT
switch fluorescence ratio: 1.02 ± 0.044

GCCACGAGGG
switch fluorescence ratio: 1.025 ± 0.0062

AGAGCTCTTT
switch fluorescence ratio: 1 ± 0.029

GAATTAATGG
switch fluorescence ratio: 1.02 ± 0.07

TCACGGGGGC
switch fluorescence ratio: 0.976 ± 0.061

AAGGCGCTCT
switch fluorescence ratio: 0.997 ± 0.014

AATTTTGTGG
switch fluorescence ratio: 1.03 ± 0.014

CGTTGCGGGG
switch fluorescence ratio: 0.9751 ± 0.0073

CCAGGGGCTT
switch fluorescence ratio: 1.31 ± 0.41

GGGAATGTAT
switch fluorescence ratio: 0.979 ± 0.037

TTTGCGAGGG
switch fluorescence ratio: 1.01 ± 0.018

ACCCAGAGCG
switch fluorescence ratio: 1.14 ± 0.023

CAGCTGCTGC
switch fluorescence ratio: 1.014 ± 0.0051

TTAATTTAG
switch fluorescence ratio: 0.985 ± 0.027

GAGTTTGTGG
switch fluorescence ratio: 0.998 ± 0.024

TTCTATATTG
switch fluorescence ratio: 0.996 ± 0.023

TGTTTAGTTT
switch fluorescence ratio: 1.01 ± 0.033

AGGGGGTGTA
switch fluorescence ratio: 1.02 ± 0.014

GGGCGTATGT
switch fluorescence ratio: 0.981 ± 0.023

TTGATTATTA
switch fluorescence ratio: 1.02 ± 0.045

GTATTAAAGC
switch fluorescence ratio: 1.024 ± 0.0052

CCCAATTTGC
switch fluorescence ratio: 1.32 ± 0.022

CAATGGAAAT
switch fluorescence ratio: 0.984 ± 0.025

GAGGTGTTGA
switch fluorescence ratio: 0.9979 ± 0.003

ATTGACTCTT
switch fluorescence ratio: 1.003 ± 0.0074

GGGAGGGCGG
switch fluorescence ratio: 0.975 ± 0.051

CAGGGTGGTA
switch fluorescence ratio: 0.9934 ± 0.0048

TTTTTAAGGT
switch fluorescence ratio: 1 ± 0.015

GATGCAGTTC
switch fluorescence ratio: 1.66 ± 0.053

AGGGGTCTCA
switch fluorescence ratio: 0.9852 ± 0.0035

AAGCCCGACG
switch fluorescence ratio: 1.13 ± 0.11

CGGGTGGAGC
switch fluorescence ratio: 0.952 ± 0.011

ATCCAAGTAA
switch fluorescence ratio: 1.04 ± 0.021

CGGCTAGTGC
switch fluorescence ratio: 1.05 ± 0.042

TATGACGTTA
switch fluorescence ratio: 1 ± 0.048

GAGAATAGCG
switch fluorescence ratio: 0.988 ± 0.028

GATTGGGGCT
switch fluorescence ratio: 1.02 ± 0.039

ACGGCAAGGG
switch fluorescence ratio: 1.15 ± 0.063

CGCGGTGCTC
switch fluorescence ratio: 3.17 ± 0.43

AGGCGCTCTG
switch fluorescence ratio: 0.99 ± 0.0045

TTCGGGGTCT
switch fluorescence ratio: 1.014 ± 0.0098

CCATGGGTTG
switch fluorescence ratio: 1.01 ± 0.016

AAAAACGCTA
switch fluorescence ratio: 1.14 ± 0.026

GCCTCTTAAG
switch fluorescence ratio: 1 ± 0.032

AATATGTGGT
switch fluorescence ratio: 0.972 ± 0.015

TCGTACCTTG
switch fluorescence ratio: 1.01 ± 0.025

AACATCTAGA
switch fluorescence ratio: 0.965 ± 0.011

TGCTGTATTC
switch fluorescence ratio: 0.967 ± 0.041

GTTCATGGTA
switch fluorescence ratio: 0.99 ± 0.0028

GGGGGTTCAG
switch fluorescence ratio: 0.978 ± 0.04

ATAGTTTG
switch fluorescence ratio: 0.97739 ± 0.00022

GGGATGAACT
switch fluorescence ratio: 1.01 ± 0.013

GTGATAATGT
switch fluorescence ratio: 0.981 ± 0.027

AATACGTATA
switch fluorescence ratio: 1.1 ± 0.068

TAGAAGTTGT
switch fluorescence ratio: 1 ± 0.022

CAAAGGGTTA
switch fluorescence ratio: 0.9906 ± 0.0086

TCAATTATAC
switch fluorescence ratio: 1.94 ± 0.41

CGGGGGAGGT
switch fluorescence ratio: 0.989 ± 0.017

CCCCGAGCCG
switch fluorescence ratio: 1.02 ± 0.06

TGGGAAGTCA
switch fluorescence ratio: 0.991 ± 0.012

GTGAGGACAA
switch fluorescence ratio: 1.05 ± 0.036

TGTAAAACTA
switch fluorescence ratio: 1.02 ± 0.028

GAGATATTTA
switch fluorescence ratio: 0.9905 ± 0.0036

TTATTGGGCA
switch fluorescence ratio: 1.04 ± 0.021

TTTGATCTCG
switch fluorescence ratio: 1.0054 ± 0.00071

ATAGGTAGGC
switch fluorescence ratio: 1.05 ± 0.072

TTTTTAAGGA
switch fluorescence ratio: 1.04 ± 0.048

GGCATATTGT
switch fluorescence ratio: 0.985 ± 0.025

CCTTGAAGGT
switch fluorescence ratio: 0.984 ± 0.0091

ATTAGGCGTG
switch fluorescence ratio: 0.987 ± 0.01

GGGAAGAGTG
switch fluorescence ratio: 0.993 ± 0.02

TGAAGGACGT
switch fluorescence ratio: 0.996 ± 0.019

GTCAGCAAAT
switch fluorescence ratio: 1.05 ± 0.02

CGTTCAAGTT
switch fluorescence ratio: 1 ± 0.024

TTGTAGGGGA
switch fluorescence ratio: 1.04 ± 0.06

TTCGTTGTAA
switch fluorescence ratio: 0.98683 ± 0.00096

CCTGAGGATG
switch fluorescence ratio: 1.03 ± 0.015

ATAAGACTCT
switch fluorescence ratio: 0.9964 ± 0.0081

TTTAGAGCTT
switch fluorescence ratio: 1.02 ± 0.024

CACTATAATG
switch fluorescence ratio: 1.05 ± 0.042

CGTGATATCT
switch fluorescence ratio: 1.05 ± 0.018

CGGGGGGGTT
switch fluorescence ratio: 1.02 ± 0.034

TTTCATTCTC
switch fluorescence ratio: 0.991 ± 0.01

GATTGGGTGT
switch fluorescence ratio: 1.03 ± 0.054
